Test results: patent US20210198328A1, “MODULATED CAS-INHIBITORS” (Universität Heidelberg, priority 2017, published 2021)

Key:
SpyCas9 = biological target: T1, SpyCas9 (Streptococcus pyogenes serotype M1, UniProt Q99ZW2); assay: Cas9 luciferase reporter cleavage assay (dual luciferase); assay type: cell-based; conditions: HEK 293T, 48 h post-transfection; for effect on Cas9-caused firefly luciferase knockdown (Cas9 inhibition): with or without N-terminal SV40 NLS
T1 construct: 2A-GFP (C); host or cells: HEK 293T
Experimental: HEK 293T cells were seeded into black, clear-bottom 96-well plates (Corning) at a density of ˜12.500 cells per well Twenty-four hours after seeding, cells were transfected according to the manufacturer's instructions using Lipofectamine® 2000 and Opti-MEM® reduced serum medium (Thermo Fisher).
For the dCas9-VP64 trans-activation assays, 50 ng/well of each, a plasmid encoding dCas9-VP64_GFP (Addgene plasmid #61422, kind gift from Feng Zhang), a tet-inducible firefly luciferase reporter (Addgene plasmid #64127, kind gift from Moritoshi Sato) and a TetO-targeting guide RNA vector (Addgene plasmid #64161, kind gift from Moritoshi Sato) were co-transfected alongside 1 ng/well pRL-TK (TK-driven Renilla expression vector for normalization; Promega) as well as 1-50 ng/well of the AcrIIA4 constructs and, optionally, stuffer DMA (pcDNA3.1(−) (Invitrogen)). For the reporter cleavage assay, a plasmid encoding an H1 promoter-driven guideRNA as well as firefly luciferase and Renilla luciferase was co-transfected alongside Cas9 expression vector pSpCas9(BB)-2A-GFP (PX453; Addgene plasmid #48138, kind gift from Feng Zhang) as weft as the corresponding AcrIIA4 variant (50 ng/well each). […]
(§1) Six h post-transfection, medium was replaced and the cells were illuminated with 460 nm pulsatile blue light (light intensity 2-3 W/m^2 as measured with a LI-COR LI-250A Light Meter, pulsatile illumination regime is indicated in figure legends) or kept in the dark under otherwise identical conditions for 32-42 h (indicated in figure legends). […] Subsequently, the luciferase activity was measured using the Dual-Glo luciferase assay kit (Promega) according to the manufacturer's protocol. In brief, the cells were lysed using the provided lysis buffer and tire activity of firefly and Renilla luciferase was quantified using a GLOMAX 96 Microplate Luminometer (Promega) with automated injectors (delay time 2 s, integration time 10 s). The relative luciferase activity was calculated by dividing the firefly luciferase photon counts by the Renilla luciferase photon counts. […]

dCas9-VP64 = biological target: T2, dCas9-VP64 (Streptococcus pyogenes serotype M1, UniProt Q99ZW2, D10A/N863A); assay: dCas9-VP64 luciferase reporter trans-activation assay; assay type: cell-based; conditions: HEK 293T
T2 construct: host or cells: HEK 293T
Experimental: HEK 293T cells were seeded into black, clear-bottom 96-well plates (Corning) at a density of ˜12.500 cells per well Twenty-four hours after seeding, cells were transfected according to the manufacturer's instructions using Lipofectamine® 2000 and Opti-MEM® reduced serum medium (Thermo Fisher). […]
as §1

Cas9 = biological target: T3, Cas9 (Streptococcus pyogenes serotype M1, UniProt Q99ZW2); assay: T7 endonuclease assay, CFTR locus editing; assay type: cell-based; conditions: HEK 293T
T3 construct: expressed in transfected cells; host or cells: HEK 293T
Experimental: HEK 293T cells were seeded into transparent 96-well plates (Coming). […] Sixteen It post-transfection, cells were irradiated with blue light (7 s ON, 7 s OFF, 3 W/m^2) for 32 h or kept in the dark as control. Subsequently, cells were washed with PBS and lysed using the DirectPCR lysis reagent (PcqLab). A fragment spanning the edited part of the CFTR locus was PCR-amplified using Q5 polymerase and the following primers: CFTR_fw: 5′-[…]-3′, SEQ ID NO: 30; CFTR_re: 5′-[…]-3′, SEQ ID NO: 31). The PCR reaction was run on an agarose gel and the amplicon was purified using a QIAGEN Gel Extraction Kit. Two hundred ng of PCR diluted in 19.5 μl 1× NEB Buffer 2 were then healed up to 95° C. followed by re-annealing in a thermocycler. Next, 0.5 μl of T7 Endonuclease (NEB) were added, and the reaction was incubated at 37° C. for 15 min and then stopped by adding EDTA-containing gel loading dye. Lastly, T7 reactions were analyzed on a 2% agarose gel stained with GelRed (Biotium, Inc.).

HEK 293T cells = assay: Light-induced nuclear export, mCherry fluorescence imaging; assay type: cell-based, human
Experimental: FIG. 5: Induced nuclear export inhibits AcrIIA4 function. (A) Schematic of AcrIIA4 construct fused to mCherry-LEXY. LEXY, light-inducible nuclear export system; fusion polypeptide sequence is SEQ ID NO: 114 (encoded by SEQ ID NO: 74). (B) Fluorescence images of HEK 293T cells transfected with the construct in A. mCherry images were taken prior to induction (Preinduction), after 15 min of irradiation with blue light (Post Activation) and after an additional 20 min recovery phase in the absence of blue light (Post Recovery). (C) Line profile of the indicated cell in B, (D) Bar plot showing control of dCas9-VP64-mediated luciferase reporter activation by NLS-AcrIIA4-mCherry-LEXY. […]
To test whether sequestering AcrIIA4 away from the nucleus could be a possible mode for allosteric Acr control we employed a light-inducible nuclear export system (LEXY) previously reported (Niopek et al., 2016), which mediates the nuclear export of proteins fused to the LEXY domain (an AsLOV2-Nuclear Export Signal-Hybrid) in response to blue light. […] The nuclear mChcrry fluorescence fully recovered within 20 min when blue-light irradiation was stopped, showing that AcrIIA4 nuclear export was reversible (FIGS. 5B and Q.

For “SV40 NLS-AcrIIA4: N-terminal SV40 NLS fusion to AcrIIA4; SEQ ID NO: 115”, the “effect on Cas9-caused firefly luciferase knockdown (Cas9 inhibition)” value (SpyCas9) was “full recovery of the luciferase reporter signal”.
In the case of “AcrIIA4: anti-CRISPR polypeptide of a Listeria monocytogenes prophage, SEQ ID NO: 1 [reference compound]”, the “effect on Cas9-caused firefly luciferase knockdown (Cas9 inhibition)” value (SpyCas9) is reported as “strongly reduced”.
With cMyc^PIA NLS-mCherry-AcrIIA4 the “AcrIIA4 activity due to nuclear targeting (dCas9-VP64 inhibition)” value (dCas9-VP64; 48 h post-transfection) was “boost in AcrIIA4 activity”.
With “construct 1: LOV2 inserted between AcrIIA4 residues E66/Y67, no linkers; SEQ ID NO: 88” the “Cas9 inhibition in the absence of blue light” value (SpyCas9; LOV2 insertion screen at 41 positions) was “highest”, the “Cas9 inhibition in the dark (CFTR locus editing)” value (Cas9; Cas9:AcrIIA4 construct 1:1, dark) was “no significant” and the “light-dependent Cas9 inhibition (CFTR locus editing light vs dark)” value (Cas9; Cas9:AcrIIA4 construct 1:4, blue light 32 h or dark) was “inhibited Cas9 in a light-dependent manner”. The “Cas9 block in the dark (CFTR editing in dark sample)” value (Cas9; Cas9:AcrIIA4 construct 1:4, dark) was “did not fully block Cas9”.
In the case of “NLS-AcrIIA4-mCherry-LEXY: NLS-tagged AcrIIA4 fused to mCherry and light-inducible nuclear export system LEXY; SEQ ID NO: 114”, the “dCas9-VP64-mediated luciferase reporter induction upon light-induced nuclear export” value (dCas9-VP64; blue light vs dark, dose-dependent) is reported as “noticeable increase”, the “time to full recovery of nuclear mCherry fluorescence after blue-light irradiation was stopped” value (HEK 293T cells) is reported as at most 20 min and the “nuclear mCherry fluorescence upon blue-light irradiation” value (HEK 293T cells; 15 min blue light) is reported as “fast and strong decrease”.
